Experiment [1] has as its target Mito-mCh (AKAP1-mCh, mitochondria-anchored mCherry) (human) (UniProt Q92667). The experiment can be described thus: Mito-to-cytosol ratio of GFP-rapabody in HeLa cells against rapamycin dose; the concentration is that of rapamycin, not of a protein.
The target in experiment [2] is NE-tethered SH2 domain of Abl kinase (SH2 fused with mEmerald-lamin A) (UniProt P00519). The experiment can be described thus: NE/NP ratio of mCh signal in HeLa cells over light-dark cycles.
For experiment [3], the target named is Mito-mCh (AKAP1-mCh, mitochondria-anchored mCherry) (human) (UniProt Q92667). The experiment can be described thus: mitochondria translocation assay in HeLa cells, 5 µM caffeine.
Experiment [4] shares this target. The experiment can be described thus: mitochondria translocation assay in HeLa cells, caffeine washed out.
Experiment [5] shares this target. The experiment can be described thus: Mito-to-cytosol ratio of GFP-caffebody in HeLa cells against caffeine dose; the concentration is that of caffeine, not of a protein.
The target of experiment [6] is ER anchored mCh (mCh fused with human Sac1 residues 521-587) (human) (UniProt Q9NTJ5). The experiment in a line: cytosol-to-ER translocation in HeLa cells under light.
The target of experiment [7] is Mito-mCh (AKAP1-mCh, mitochondria-anchored mCherry) (human) (UniProt Q92667). The experiment can be described thus: cytosol-to-mitochondria translocation in HeLa cells under light.

B1: GFP-rapabody (anti-mCh nanobody LaM8 with UniRapR in the S3 loop) (VHH, not shown: large carriers)
chain: QLVESGGGLVQAGGSLRLSCAVSGRPFSEYNLGWFRQAPGKEREFVARIRSSGTTVYTDSVKGRFSASRDNATCVVHYTGMLEDGKKFDSSRDRNKPFKFMLGKQEVIRGWEEGVAQMSVGQRAKLTISPDYAYGATGHGSGSGSGVKDLLQAWDLYYHVFRRISGPPGPGSGLWHEMWHEGLEEASRLYFGERNVKGMFEVLEPLHAMMERGPQTLKETSFNQAYGRDLMEAQEWCRKYMKSGSSGGSGSGIIPPHATLVFDVELLKLEKNMGYLQLNSLEPEDTAVYYCAMSRVDTDSPAFYDYWGQGTQVTVSTPRS
In the case of B1, the EC50 of rapamycin (dose of the small-molecule switch) for release from the antigen in experiment [1] stood at 1600 nM.

B2: mCh-moonbody (anti-SH2 moonbody, variant S5.1) (designed binder, not shown: large carriers)
chain: VSSVPTKLEVVDATPTSLKISWDAYYSSWQNVKYYRITYGETGGDSPVQEFTVPGYYSTATISGLKPGSGLATTLERIEKNFVITDPRLPDNPIIFASDSFLQLTEYSREEILGRNCRFLQGPETDRATVRKIRDAIDNQTEVTVQLINYTKSGKKFWNLFHLQPMRDQKGDVQYFIGVQLDGTEHVRDAAEREGVMLIKKTAENIDEAAKELGVDYTITVYAYDTFFPGYEPNSPISINYRT
Consider B2, for which, in experiment [2], the activation half-life (light-induced dissociation from the antigen) is 7.8 s and the deactivation half-life (return to the antigen in the dark) worked out at 46.5 s.

B3: GFP-caffebody (anti-mCh nanobody LaM8 with 2xacVHH in the S3 loop) (VHH, not shown: large carriers)
chain: MAQVQLVESGGGLVQAGGSLRLSCAVSGRPFSEYNLGWFRQAPGKEREFVARIRSSGTTVYTDSVKGRFSASRDNAEVQLQASGGGLVQAGGSLRLSCTASGRTGTIYSMAWFRQAPGKEREFLATVGWSSGITYYMDSVKGRFTISRDNAKNSAYLQMNSLKPEDTAVYYCTATRAYSVGYDYWGQGTQVTVSHAAAGAPVPYPDPLEPREQKLISEEDLLEAVYSGGGGGGGSGGGGGGGSGGGGGGGSGEVQLQASGGGLVQAGGSLRLSCTASGRTGTIYSMAWFRQAPGKEREFLATVGWSSGITYYMDSVKGRFTISRDNAKNSAYLQMNSLKPEDTAVYYCTATRAYSVGYDYWGQGTQVTVSKNMGYLQLNSLEPEDTAVYYCAMSRVDTDSPAFYDYWGQGTQVTVSTPRS
B3 showed a half-life of caffeine-induced translocation to the antigen (t½, on) in experiment [3] of 16.3 s. In experiment [4], this molecule showed a deactivation half-life after withdrawal of caffeine of 23.6 s. For the same molecule, in experiment [5], the EC50 of caffeine (dose of the small-molecule switch) for binding to the antigen was 2300 nM.

B4: GFP-2xsunbody (dimeric concatemer of sunbody) (VHH, not shown: large carriers)
chain: LATTLERIEKNFVITDPRLPDNPIIFASDSFLQLTEYSREEILGRNCRFLQGPETDRATVRKIRDAIDNQTEVTVQLINYTKSGKKFWNLFHLQPMRDQKGDVQYFIGVQLDGTEHVRDAAEREGVMLIKKTAENIDEAAKELKLMAQVQLVESGGGLVQAGGSLRLSCAVSGRPFSEYNLGWFRQAPGKEREFVARIRSSGTTVYTDSVKGRFSASRDNALERIEKNFVITDPRLPDNPIIFASDSFLQLTEYSREEILGRNCRFLQGPETDRATVRKIRDAIDNQTEVTVQLINYTKSGKKFWNLFHLQPMRDQKGDVQYFIGVQLDGTEHVRDAAEREGVMLIKKTAENIDEAAKNMGYLQLNSLEPEDTAVYYCAMSRVDTDSPAFYDYWGQGTQVTVSTPRSLATTLERIEKNFVITDPRLPDNPIIFASDSFLQLTEYSREEILGRNCRFLQGPETDRATVRKIRDAIDNQTEVTVQLINYTKSGKKFWNLFHLQPMRDQKGDVQYFIGVQLDGTEHVRDAAEREGVMLIKKTAENIDEAAKELKLMAQVQLVESGGGLVQAGGSLRLSCAVSGRPFSEYNLGWFRQAPGKEREFVARIRSSGTTVYTDSVKGRFSASRDNALERIEKNFVITDPRLPDNPIIFASDSFLQLTEYSREEILGRNCRFLQGPETDRATVRKIRDAIDNQTEVTVQLINYTKSGKKFWNLFHLQPMRDQKGDVQYFIGVQLDGTEHVRDAAEREGVMLIKKTAENIDEAAKNMGYLQLNSLEPEDTAVYYCAMSRVDTDSPAFYDYWGQGTQVTVSTPRS
B4: the fold increase in the signal-to-background ratio against 1x sunbody in experiment [6] and in experiment [7] was greater than 2 fold throughout.

Source of the values: patent publication US20250122266A1, “SMART SINGLE-DOMAIN INTRABODIES WITH PRECISION SWITCHES FOR BIOMEDICAL APPLICATIONS” (THE TEXAS A&M UNIVERSITY SYSTEM, priority 2020, published 2025).
